Values of other authors in paper PMC2953804.

Biological target: Mlh1 (Saccharomyces cerevisiae) (UniProt P38920)

Kd: 3.14 µM
Substance: Mlh1 (from UniProt P38920)
